Laboratory results published in patent publication US20250352615A1, “COMPOSITIONS AND METHODS FOR THE MODULATION OF PIEZO1 AND TRPV4” (Duke University, priority 2021, published 2025).

How the values were obtained:
[1] = test system: pancreatic acini; assay: Mitochondrial depolarization in pancreatic acini (TMRE); assay type: cell-based, mouse; details: GsMTx4 5 μM; Yoda1 50 μM; WT cells
Experimental: Live-cell mitochondrial depolarization was analyzed using the mitochondrial labeling dye, TMRE. Isolated acini were plated on a thin-layered, Matrigel-coated, glass-bottom culture plate with DMEM/F12 and 10% FBS media and placed in a CO2 incubator for 1 hr at 37° C. After 1 hr, the acini were incubated with TMRE (200 nM) in the bath buffer containing 140 mM NaCl, 4.7 mM KCl, 2.0 CaCl2, 1 mM MgCl2, 10 mM HEPES, and 10 mM glucose (pH adjusted to 7.4 with NaOH) for 30 minutes. The TMRE dye was washed and replaced with fresh bath buffer. The images were captured with a Zeiss Axio observer Z1 microscope with MetaMorph software (Molecular Devices) at intervals of 600 ms. TMRE was excited at 540-600 nm and emission collected at 585-675 nm. Carbonyl cyanide 4-(trifluoromethoxy) phenylhydrazone (FCCP), which uncouples the oxidative phosphorylation process and depolarizes mitochondria, was used as a positive control. A maximum of 2 mitochondrial puncta were taken per acinar cell.

[2] = target: T1, Piezo1 (Mus musculus, UniProt E2JF22); assay: Mechanical pushing-induced [Ca2+]i in pancreatic acini; assay type: cell-based; details: prior treatment with GsMTx4; blunt pipette 5 μm for 1 second
T1 construct: endogenous in cells; host or cells: freshly isolated mouse pancreatic acini (WT = Piezo1 fl/fl on a C57BL/6J background)
T1 sequence (E2JF22 whole entry): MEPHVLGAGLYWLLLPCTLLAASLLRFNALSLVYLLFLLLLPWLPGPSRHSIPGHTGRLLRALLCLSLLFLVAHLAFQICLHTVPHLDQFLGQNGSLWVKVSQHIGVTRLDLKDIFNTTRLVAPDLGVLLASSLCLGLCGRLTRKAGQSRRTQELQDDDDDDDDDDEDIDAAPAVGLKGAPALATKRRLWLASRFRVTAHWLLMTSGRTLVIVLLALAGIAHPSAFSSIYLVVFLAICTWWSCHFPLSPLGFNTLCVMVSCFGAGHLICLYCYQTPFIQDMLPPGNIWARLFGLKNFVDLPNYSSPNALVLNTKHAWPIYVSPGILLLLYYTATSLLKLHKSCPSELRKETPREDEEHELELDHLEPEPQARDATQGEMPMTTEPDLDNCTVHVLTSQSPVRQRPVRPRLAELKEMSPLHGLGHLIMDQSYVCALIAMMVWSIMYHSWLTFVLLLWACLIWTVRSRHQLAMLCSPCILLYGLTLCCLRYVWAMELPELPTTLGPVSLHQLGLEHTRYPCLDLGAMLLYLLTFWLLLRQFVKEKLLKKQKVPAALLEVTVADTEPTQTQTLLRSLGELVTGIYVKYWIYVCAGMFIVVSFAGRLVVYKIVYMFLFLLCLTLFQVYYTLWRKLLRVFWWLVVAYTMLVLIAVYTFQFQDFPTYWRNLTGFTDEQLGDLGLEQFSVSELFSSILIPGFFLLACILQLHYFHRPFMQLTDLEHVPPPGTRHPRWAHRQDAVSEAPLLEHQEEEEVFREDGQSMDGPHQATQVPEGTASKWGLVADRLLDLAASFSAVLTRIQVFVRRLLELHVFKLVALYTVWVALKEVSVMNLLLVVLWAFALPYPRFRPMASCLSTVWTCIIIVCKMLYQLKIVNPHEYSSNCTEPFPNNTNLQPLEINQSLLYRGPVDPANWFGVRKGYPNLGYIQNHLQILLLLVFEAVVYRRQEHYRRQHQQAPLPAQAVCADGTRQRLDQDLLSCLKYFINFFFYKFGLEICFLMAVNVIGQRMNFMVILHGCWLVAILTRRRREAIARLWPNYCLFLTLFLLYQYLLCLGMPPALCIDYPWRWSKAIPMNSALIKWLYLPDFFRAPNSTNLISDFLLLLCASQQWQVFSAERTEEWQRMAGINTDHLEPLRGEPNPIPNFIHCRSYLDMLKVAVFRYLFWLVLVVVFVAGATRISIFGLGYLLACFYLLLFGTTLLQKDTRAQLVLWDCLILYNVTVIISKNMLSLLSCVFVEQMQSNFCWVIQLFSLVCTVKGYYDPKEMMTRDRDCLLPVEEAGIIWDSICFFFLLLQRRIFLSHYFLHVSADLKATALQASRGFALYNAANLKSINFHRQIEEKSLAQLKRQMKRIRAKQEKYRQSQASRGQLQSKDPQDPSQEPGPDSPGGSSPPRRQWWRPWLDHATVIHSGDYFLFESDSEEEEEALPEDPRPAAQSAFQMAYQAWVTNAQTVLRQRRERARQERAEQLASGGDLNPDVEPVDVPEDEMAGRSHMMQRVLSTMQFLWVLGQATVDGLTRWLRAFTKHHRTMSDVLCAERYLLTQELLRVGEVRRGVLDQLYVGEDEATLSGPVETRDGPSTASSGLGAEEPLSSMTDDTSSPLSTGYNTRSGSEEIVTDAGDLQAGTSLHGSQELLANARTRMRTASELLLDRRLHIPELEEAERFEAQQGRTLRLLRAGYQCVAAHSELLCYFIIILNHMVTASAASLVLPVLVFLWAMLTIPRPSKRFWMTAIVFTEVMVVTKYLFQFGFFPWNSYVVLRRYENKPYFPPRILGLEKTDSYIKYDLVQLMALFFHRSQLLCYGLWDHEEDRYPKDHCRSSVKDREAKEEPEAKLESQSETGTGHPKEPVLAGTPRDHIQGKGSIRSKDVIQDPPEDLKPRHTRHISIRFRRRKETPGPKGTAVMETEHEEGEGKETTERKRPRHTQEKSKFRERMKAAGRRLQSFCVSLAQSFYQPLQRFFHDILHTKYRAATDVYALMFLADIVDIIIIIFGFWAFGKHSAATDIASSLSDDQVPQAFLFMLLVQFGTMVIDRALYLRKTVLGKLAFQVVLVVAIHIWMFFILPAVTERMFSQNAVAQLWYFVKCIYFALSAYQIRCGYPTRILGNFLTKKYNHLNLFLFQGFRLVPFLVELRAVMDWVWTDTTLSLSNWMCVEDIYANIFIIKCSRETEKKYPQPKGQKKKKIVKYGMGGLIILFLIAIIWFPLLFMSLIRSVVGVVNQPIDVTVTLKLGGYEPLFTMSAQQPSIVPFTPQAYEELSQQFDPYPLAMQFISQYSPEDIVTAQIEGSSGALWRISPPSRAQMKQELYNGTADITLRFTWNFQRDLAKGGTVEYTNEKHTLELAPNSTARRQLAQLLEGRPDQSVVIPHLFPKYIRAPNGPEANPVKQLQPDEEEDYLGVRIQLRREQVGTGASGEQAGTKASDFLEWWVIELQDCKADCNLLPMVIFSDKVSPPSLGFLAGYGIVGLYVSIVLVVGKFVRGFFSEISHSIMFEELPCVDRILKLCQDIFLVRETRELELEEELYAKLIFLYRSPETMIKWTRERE
Experimental: A borosilicate glass pipette (Sutter Instrument) was pulled using a pipette puller P-87 (Sutter Instruments) and made blunt with an MF-900 Microforge (Narishige). Acini were pushed once with a 2- to 3-μm tip blunt pipette to 5 μm for 1 second using a micromanipulator (World Precision Instruments).
Calcium imaging in pancreatic acini was performed as previously described. The chemicals used in calcium imaging experiments included the following: Yoda1 (Tocris; 5586), GsMTx4 (Abcam; ab141871), 5′,6′-EET (Santa Cruz Biotechnology; sc-221066), AA (Millipore Sigma; A3611), HC067047 (Tocris; 4100), GSK1016790A (Millipore Sigma; G0798), RN1734 (Tocris; 3746), AACOCF3 (Tocris; 1462), YM26734 (Tocris; 2522), GF109203X (Tocris; 0741), and CCK8 (Sigma-Aldrich).

[3] = test system: human PSCs; assay: Human PSC activation and fibrogenic response (fat droplets, cell shape, ECM mRNA and immunostaining); assay type: cell-based; details: GsMTx4 5 μM, 12 or 25 dyne/cm^2 for 10 minutes
Experimental: (§1) Mouse and human PSCs were isolated using collagenase digestion. Modified Krebs Henseleit Buffer (KHB) solution (100 mL) was prepared as previously described by Romac et al., Nat. Commun. 9(1):1715 (2018). Pancreatic tissue was digested with 2 mg of collagenase NB 8 (SERVA, catalog 17456) dissolved in 10 mL of modified KHB solution containing 1 mg soybean trypsin inhibitor (SBTI 1-S; Millipore Sigma, catalog T9003) and 20 mg BSA (Thermo Fisher Scientific; BP1600-100). Digestion solution (5 mL) was used to inflate the pancreas. Pancreas with 5 mL of digestion solution was incubated in a shaking water bath for 10 minutes at 37° C. The solution was then discarded. The pancreas tissue was cut into small pieces and digested with fresh 5 mL digestion buffer. Tissue was incubated in a shaking water bath for 40 minutes at 37° C. The cells were then separated from tissue by pipetting up-down with a 10 mL pipette and passed sequentially through a 70 μm and a 40 μm cell strainer. The filtrate was centrifuged at 150×g for 3 minutes at room temperature. The cells were washed with 10 mL Leibovitz's media (Thermo Fisher Scientific, catalog 11415-064), passed through a 20 μm filter, and centrifuged at 80×g for 3 minutes at room temperature. The supernate was removed, and isolated stellate cells were plated on a thin-layered Matrigel-coated glass bottom culture plate (MatTek, P35G-0-14-C). Before plating the cells, Matrigel solution (Corning, catalog 354234) at a ratio of 1.5:100 DMEM/F12 (Thermo Fisher Scientific, catalog 11330-032) was poured onto the culture plate and incubated for 2 hr at 37° C. to form a thin layer of Matrigel coating. Matrigel mixture was removed, and the plate was washed with PBS before cells were plated. Cell culture media, DMEM/F12 with 5% FBS was used for mouse stellate cells. Fresh, human pancreatic tissue was digested with collagenase as described above with modifications. Collagenase (2.5 mg) in 10 mL of modified KHB solution was used for digestion. The digested tissues were filtered through a 100 μm cell strainer. The cells were cultured with DMEM/F12 with 10% FBS in a Matrigel-coated plate. After 24 hr, the cell media was replaced with fresh media to remove unattached and dead cells. After 2 days, cells were immunostained for GFAP and used for experiments. Perinuclear fat droplets were stained with BODIPY 493/503 (4,4-Difluoro-1,3,5,7,8-Pentamethyl-4-Bora-3a,4a-Diaza-s-Indacene; Invitrogen, catalog D3922) to confirm stellate cell quiescence. The cell viability following Yoda1 treatment was analyzed using the Live/Dead cell imaging kit (Thermo Fisher Scientific, catalog R37601). RNAs were isolated using the RiboPure Kit (Invitrogen, catalog AM1924) according to manufacturer's instructions.
(§2) Fluid shear stress and mechanical pushing applied to stellate cells were achieved as previously described by Wang et al., J. Clin. Invest. 126(12): 4527-4536 (2016). Parallel-plate fluid flow chambers (μ-Slide I 0.4 Luer, or μ-Slide I 0.2 Luer from Ibidi) were used for fluid shear stress experiments. The fluid shear stress (T) was calculated using the formula: τ=η×[…] φ for μ-Slide I 0.4 Luer and τ=η×330.4 φ for μ-Slide I 0.2 Luer, where r represents viscosity of the medium and φ represents flow rate (according to the manufacturer's instructions, Ibidi). Mechanical pushing was achieved by applying a blunt borosilicate glass pipette once to the cell membrane with a deflection of 2-3 μm for 1 second using a micromanipulator (World Precision Instruments).
Mouse and human PSCs were washed with PBS (pH 7.4) and fixed with 4% paraformaldehyde for 10 minutes at room temperature. The fixed cells were treated with 0.1% Triton X-100. […]

[4] = target: T1, Piezo1; assay: Calcium imaging of Piezo1-mediated [Ca2+]i in mouse PSCs; assay type: cell-based; details: GsMTx4 5 μM
Experimental: as §1, §2
Calcium 6-QF (Molecular Devices) dye was used for live-cell calcium imaging as described by Romac et al., Nat. Commun. 9(1):1715 (2018). Cells were imaged in HBSS buffer with 2 mM Ca^2+. Faintly and highly fluorescent loaded cells were excluded from analysis. […]

[5] = target: T2, Piezo1 (Homo sapiens, UniProt Q92508); assay: Calcium imaging of Piezo1-mediated [Ca2+]i in human PSCs; assay type: cell-based; details: GsMTx4 5 μM, human PSCs
T2 construct: Fresh, human pancreatic tissue was digested with collagenase as described above with modifications; endogenous in cells; host or cells: primary human pancreatic stellate cells from fresh human pancreatic tissue
T2 sequence (Q92508 whole entry): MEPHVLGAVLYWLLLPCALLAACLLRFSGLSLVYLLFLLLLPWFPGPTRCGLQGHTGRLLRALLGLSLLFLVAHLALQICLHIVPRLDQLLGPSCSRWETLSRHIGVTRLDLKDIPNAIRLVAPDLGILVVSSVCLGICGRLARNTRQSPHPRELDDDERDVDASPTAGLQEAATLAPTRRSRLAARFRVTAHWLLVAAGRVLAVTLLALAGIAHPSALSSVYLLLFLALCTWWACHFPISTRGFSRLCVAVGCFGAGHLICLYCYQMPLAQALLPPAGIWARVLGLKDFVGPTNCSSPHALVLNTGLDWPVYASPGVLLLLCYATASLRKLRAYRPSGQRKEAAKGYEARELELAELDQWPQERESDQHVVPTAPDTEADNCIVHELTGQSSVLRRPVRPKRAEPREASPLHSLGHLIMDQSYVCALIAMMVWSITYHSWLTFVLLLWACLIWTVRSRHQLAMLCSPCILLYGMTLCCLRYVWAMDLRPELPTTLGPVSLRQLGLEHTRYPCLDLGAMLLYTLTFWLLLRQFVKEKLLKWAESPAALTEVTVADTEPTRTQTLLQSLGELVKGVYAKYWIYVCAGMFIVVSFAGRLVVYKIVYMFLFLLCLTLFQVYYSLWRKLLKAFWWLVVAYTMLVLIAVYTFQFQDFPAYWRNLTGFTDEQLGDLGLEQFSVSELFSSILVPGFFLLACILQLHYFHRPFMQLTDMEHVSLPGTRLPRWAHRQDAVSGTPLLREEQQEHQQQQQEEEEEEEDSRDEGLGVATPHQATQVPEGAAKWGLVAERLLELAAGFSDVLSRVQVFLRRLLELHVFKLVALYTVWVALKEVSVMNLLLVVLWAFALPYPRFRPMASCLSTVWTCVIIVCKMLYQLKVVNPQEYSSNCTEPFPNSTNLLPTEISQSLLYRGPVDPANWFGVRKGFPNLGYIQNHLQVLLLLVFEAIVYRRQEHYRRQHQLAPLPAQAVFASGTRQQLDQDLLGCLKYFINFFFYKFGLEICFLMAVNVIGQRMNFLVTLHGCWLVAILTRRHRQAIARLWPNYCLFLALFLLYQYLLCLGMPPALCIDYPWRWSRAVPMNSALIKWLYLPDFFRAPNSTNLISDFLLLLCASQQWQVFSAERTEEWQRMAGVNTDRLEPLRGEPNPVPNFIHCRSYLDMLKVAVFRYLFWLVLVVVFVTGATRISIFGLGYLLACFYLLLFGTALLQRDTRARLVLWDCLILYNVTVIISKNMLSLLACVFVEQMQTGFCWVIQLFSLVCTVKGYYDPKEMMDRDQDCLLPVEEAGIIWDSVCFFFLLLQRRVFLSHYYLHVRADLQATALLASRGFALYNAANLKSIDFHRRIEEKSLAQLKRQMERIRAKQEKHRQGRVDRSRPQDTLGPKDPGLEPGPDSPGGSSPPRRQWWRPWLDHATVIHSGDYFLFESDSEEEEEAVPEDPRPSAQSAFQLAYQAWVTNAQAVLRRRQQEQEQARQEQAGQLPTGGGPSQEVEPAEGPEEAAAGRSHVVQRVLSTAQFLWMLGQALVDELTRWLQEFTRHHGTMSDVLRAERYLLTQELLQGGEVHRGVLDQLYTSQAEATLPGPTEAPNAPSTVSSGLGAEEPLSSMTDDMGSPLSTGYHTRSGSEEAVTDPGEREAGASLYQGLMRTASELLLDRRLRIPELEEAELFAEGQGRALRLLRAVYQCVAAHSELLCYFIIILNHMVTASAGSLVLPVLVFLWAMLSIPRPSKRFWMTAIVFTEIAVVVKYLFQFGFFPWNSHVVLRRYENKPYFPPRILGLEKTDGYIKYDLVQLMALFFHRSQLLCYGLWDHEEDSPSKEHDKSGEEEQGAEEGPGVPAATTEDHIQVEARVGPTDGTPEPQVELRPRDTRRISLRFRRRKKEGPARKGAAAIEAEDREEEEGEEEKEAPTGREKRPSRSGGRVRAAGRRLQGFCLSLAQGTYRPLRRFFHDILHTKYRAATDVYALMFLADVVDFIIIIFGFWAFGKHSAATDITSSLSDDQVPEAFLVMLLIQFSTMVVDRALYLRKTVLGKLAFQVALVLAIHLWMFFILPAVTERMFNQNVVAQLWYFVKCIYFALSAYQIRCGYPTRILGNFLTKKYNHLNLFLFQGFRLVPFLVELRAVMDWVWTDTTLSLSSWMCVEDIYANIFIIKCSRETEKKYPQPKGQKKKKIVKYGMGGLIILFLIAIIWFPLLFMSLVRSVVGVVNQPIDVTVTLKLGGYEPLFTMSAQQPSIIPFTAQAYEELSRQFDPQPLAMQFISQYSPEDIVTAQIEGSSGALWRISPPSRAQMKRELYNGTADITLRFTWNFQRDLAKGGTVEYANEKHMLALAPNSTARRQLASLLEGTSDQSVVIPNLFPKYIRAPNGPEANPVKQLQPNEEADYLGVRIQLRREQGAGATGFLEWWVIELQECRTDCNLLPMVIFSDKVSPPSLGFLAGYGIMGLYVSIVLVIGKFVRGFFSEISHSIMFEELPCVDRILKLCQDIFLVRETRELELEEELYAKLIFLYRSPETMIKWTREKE
Experimental: Mouse and human PSCs were isolated using collagenase digestion. Modified Krebs Henseleit Buffer (KHB) solution (100 mL) was prepared as previously described by Romac et al., Nat. Commun. 9(1):1715 (2018). Pancreatic tissue was digested with 2 mg of collagenase NB 8 (SERVA, catalog 17456) dissolved in 10 mL of modified KHB solution containing 1 mg soybean trypsin inhibitor (SBTI 1-S; Millipore Sigma, catalog T9003) and 20 mg BSA (Thermo Fisher Scientific; BP1600-100). Digestion solution (5 mL) was used to inflate the pancreas. Pancreas with 5 mL of digestion solution was incubated in a shaking water bath for 10 minutes at 37° C. The solution was then discarded. The pancreas tissue was cut into small pieces and digested with fresh 5 mL digestion buffer. Tissue was incubated in a shaking water bath for 40 minutes at 37° C. The cells were then separated from tissue by pipetting up-down with a 10 mL pipette and passed sequentially through a 70 μm and a 40 μm cell strainer. The filtrate was centrifuged at 150×g for 3 minutes at room temperature. The cells were washed with 10 mL Leibovitz's media (Thermo Fisher Scientific, catalog 11415-064), passed through a 20 μm filter, and centrifuged at 80×g for 3 minutes at room temperature. The supernate was removed, and isolated stellate cells were plated on a thin-layered Matrigel-coated glass bottom culture plate (MatTek, P35G-0-14-C). […] The cell viability following Yoda1 treatment was analyzed using the Live/Dead cell imaging kit (Thermo Fisher Scientific, catalog R37601). […]
Fluid shear stress and mechanical pushing applied to stellate cells were achieved as previously described by Wang et al., J. Clin. Invest. […] The fluid shear stress (T) was calculated using the formula: τ=η×[…] φ for μ-Slide I 0.4 Luer and τ=η×330.4 φ for μ-Slide I 0.2 Luer, where r represents viscosity of the medium and φ represents flow rate (according to the manufacturer's instructions, Ibidi). […]

[6] = target: T1, Piezo1; details: pancreatic acini; recently reported; cited from earlier work
[7] = test system: pancreatic acini; assay: Trypsinogen activation in pancreatic acini (BZiPAR); assay type: cell-based, mouse; details: GsMTx4 5 μM
Experimental: To visualize Piezo1-induced trypsinogen activation, acini were loaded with active trypsin enzyme substrate BZiPAR (10 μM). Na-HEPES buffer with 2 mM Ca^2+ was used during imaging. A Zeiss Axio observer Z1 with a high-sensitivity EMCCD camera with a ×40/0.75 EC-Plan-NeoFluar DIC objective was used to capture the Z-stack images with stack thickness of 3 μm at an interval of 12 seconds. The BZiPAR fluorescent wavelength Ex/Em was 498/521 nm. BZiPAR was excited at 470-510 nm and emission collected at 495-550 nm. The captured images were analyzed with MetaMorph software (Molecular Devices).

Substance: GsMTx4 (GCLEFWWKCNPNDDKCCRPKLKCSKLFKLCNFSF; HELM PEPTIDE1{G.C.L.E.F.W.W.K.C.N.P.N.D.D.K.C.C.R.P.K.L.K.C.S.K.L.F.K.L.C.N.F.S.F.[am]}$PEPTIDE1,PEPTIDE1,16:R3-30:R3|PEPTIDE1,PEPTIDE1,2:R3-17:R3|PEPTIDE1,PEPTIDE1,9:R3-23:R3$$$V2.0; N-terminus assumed; SMILES CC(C)C[C@@H]1NC(=O)[C@@H](NC(=O)CN)CSSC[C@@H]2NC(=O)[C@@H]3CSSC[C@@H](C(=O)N[C@@H](CC(N)=O)C(=O)N[C@@H](Cc4ccccc4)C(=O)N[C@@H](CO)C(=O)N[C@@H](Cc4ccccc4)C(N)=O)NC(=O)[C@H](CC(C)C)NC(=O)[C@H](CCCCN)NC(=O)[C@H](Cc4ccccc4)NC(=O)[C@H](CC(C)C)NC(=O)[C@H](CCCCN)NC(=O)[C@H](CO)NC(=O)[C@H](CSSC[C@H](NC(=O)[C@H](CCCCN)NC(=O)[C@H](Cc4c[nH]c5ccccc45)NC(=O)[C@H](Cc4c[nH]c5ccccc45)NC(=O)[C@H](Cc4ccccc4)NC(=O)[C@H](CCC(=O)O)NC1=O)C(=O)N[C@@H](CC(N)=O)C(=O)N1CCC[C@H]1C(=O)N[C@@H](CC(N)=O)C(=O)N[C@@H](CC(=O)O)C(=O)N[C@@H](CC(=O)O)C(=O)N[C@@H](CCCCN)C(=O)N3)NC(=O)[C@H](CCCCN)NC(=O)[C@H](CC(C)C)NC(=O)[C@H](CCCCN)NC(=O)[C@@H]1CCCN1C(=O)[C@H](CCCNC(=N)N)NC2=O; UniProt Q7YT39 47-80, looked up)
- effect on Yoda1-induced mitochondrial depolarization [1]: blocked the Yoda1-induced mitochondrial depolarization
- effect on mechanical pushing-induced transient [Ca2+]i rise [2]: completely blocked
- effect on shear stress-mediated pathological changes (fat droplet loss, fibronectin, collagen type I) [3]: attenuated the shear stress-mediated pathological changes
- effect on Yoda1-induced calcium rise ([4]; mouse PSCs): blocked the calcium rise produced by Yoda1
- effect on shear stress-induced transient [Ca2+]i elevation in TRPV4-null PSCs ([4]; 12 dyne/cm^2 for 1 minute): blocked the effects of high shear stress (12 dyne/cm^2 for 1 minute) on the transient [Ca^2+]i elevation
- effect on Yoda1 (25 μM)-mediated [Ca2+]i rise [5]: sensitive to GsMTx4 blockade
- effect on fluid shear stress-induced sustained [Ca2+]i increase ([5]; 12 dyne/cm^2 for 1 minute): blocked
- effect on Yoda1-mediated [Ca2+]i rise [6]: inhibits the Yoda1-mediated [Ca^2+]i rise
- effect on Yoda1-induced trypsin activation [7]: blocked the Yoda1-induced trypsin activation
